Laboratory results as given in US20050153923A1, “Targeted drug delivery using EphA2 or EphA4 binding moieties” (priority 2003, published 2005).
Entries after “also recorded” stand apart in the source; their conditions may differ.

Columns and labels:
[1] = test system: MDA-MB-231 breast cancer cells; experiment: Tumor growth and survival, MDA-MB-231 cells implanted subcutaneously into athymic mice; details: 6 mg/kg i.p. twice a week for 3 weeks vs PBS or 1A7; FIG. 7B, D
Protocol: MDA-MB-231 cells were implanted subcutaneously into athymic mice. […] Tumor growth was assessed and expressed as a ratio of the tumor volume divided by initial tumor volume (100 mm^3).
(D) MDA-MB-231 breast cancer cells were implanted subcutaneously into athymic mice. […] Total tumor volume was determined after sacrifice.
Briefly, 5×10^6 MDA-MB-231 breast cancer cells were implanted subcutaneously into athymic mice. […] Tumor growth was assessed and expressed as a ratio of the tumor volume divided by initial tumor volume (100 mm^3).
5×10^6 MDA-MB-231 breast cancer cells were implanted orthotopically or subcutaneously and 5×10^6 A549 lung cancer cells were implanted subcutaneously into athymic mice. […] Tumor growth was assessed and expressed either as a ratio of the tumor volume divided by initial tumor volume (100 mm^3) or as total tumor volume.

EphA2 [2] = experiment: EphA2 degradation / protein level in MDA-MB-231 cells (Western blot); format: cell-based; details: MDA-MB-231 monolayers; single dose 5 μg/ml, 37° C.
Sequence of EphA2 (P29317 24-976): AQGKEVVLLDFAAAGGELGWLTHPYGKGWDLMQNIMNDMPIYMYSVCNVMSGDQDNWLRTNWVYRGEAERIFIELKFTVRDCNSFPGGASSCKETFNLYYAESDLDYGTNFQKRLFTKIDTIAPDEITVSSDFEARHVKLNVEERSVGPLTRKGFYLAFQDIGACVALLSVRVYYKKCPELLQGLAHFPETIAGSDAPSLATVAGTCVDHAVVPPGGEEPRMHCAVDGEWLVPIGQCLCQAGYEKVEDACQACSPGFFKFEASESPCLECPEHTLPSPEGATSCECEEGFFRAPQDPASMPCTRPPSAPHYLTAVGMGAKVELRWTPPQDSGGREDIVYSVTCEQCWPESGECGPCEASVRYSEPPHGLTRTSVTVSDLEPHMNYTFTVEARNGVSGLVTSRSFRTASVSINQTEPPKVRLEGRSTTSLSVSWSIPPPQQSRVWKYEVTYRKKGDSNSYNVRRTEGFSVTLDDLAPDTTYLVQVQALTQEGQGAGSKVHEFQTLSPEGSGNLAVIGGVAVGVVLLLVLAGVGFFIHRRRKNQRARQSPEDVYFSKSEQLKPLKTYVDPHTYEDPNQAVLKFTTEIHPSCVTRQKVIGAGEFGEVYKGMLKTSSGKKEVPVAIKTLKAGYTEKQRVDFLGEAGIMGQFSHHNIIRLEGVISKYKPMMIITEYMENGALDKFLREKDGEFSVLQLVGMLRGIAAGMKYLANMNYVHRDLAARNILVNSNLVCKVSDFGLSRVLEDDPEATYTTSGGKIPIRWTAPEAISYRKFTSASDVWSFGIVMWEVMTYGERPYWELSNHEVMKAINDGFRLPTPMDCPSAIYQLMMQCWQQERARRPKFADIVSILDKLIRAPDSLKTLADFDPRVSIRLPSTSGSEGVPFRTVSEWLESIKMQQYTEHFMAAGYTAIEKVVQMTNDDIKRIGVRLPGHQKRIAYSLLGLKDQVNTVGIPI
Protocol: Monolayers of MDA-MB-231 cells were incubated in the presence of a single dose of 5 μg/ml (A, C) Eph099B-208.261 or (B, D) EA2 for the indicated time at 37° C. Cell lysates were then resolved by SDS-PAGE and subjected to Western blot analysis with an EphA2-specific antibody (A, B).
(§1) Monolayers of MDA-MB-231 cells were incubated in the presence of a single dose of 5 μg/ml Eph099B-233.152 at 37° C. Cell lysates were then immunoprecipitated with D7 (an EphA2-specific antibody), resolved by SDS-PAGE and subjected to Western blot analysis with (A) a phosphotyrosine-specific antibody or (B) an EphA2-specific antibody.
Monolayers of MDA-MB-231 cells were incubated in the presence of EphA2 agonistic antibodies at 37° C. Cell lysates were then resolved by SDS-PAGE and subjected to Western blot analysis with an EphA2-specific antibody (D7). […] Decreased EphA2 expression is due, in part, to deceased mRNA expression levels in response to EphA2 protein degradation caused by agonistic antibody binding (data not shown).
(§2) Western blot analyses and immunoprecipitations were performed as described previously (Zantek et al., 1999, Cell Growth Diff. 10: 629-38, which is incorporated by reference in its entirety). […] Antibody binding was detected by enhanced chemiluminescence (Pierce, Rockford, Ill.) and autoradiography (Kodak X-OMAT; Rochester, N.Y.).

MDA-MB-231 tumor cells = experiment: Inhibition of colony formation in soft agar; format: cell-based; details: single dose 5 μg/ml purified antibody, FIG. 5
Protocol: A single dose of 5 μg/ml of Eph099B-208.261 (black bar), EA2 (white bar) purified EphA2 antibodies or a negative control antibody, 1A7 (gray bar) were incubated with malignant MDA-MB-231 tumor cells for the indicated time at 37° C. in soft agar. Results are reported as colonies per high-powered field (HPF).
Briefly, cells were suspended in soft agar for 7 days at 37° C. in the presence of purified antibody or control solution (PBS). Antibodies were administered at the time of suspension in both bottom and top agar solutions. Colony formation was scored microscopically using an Olympus CK-3 inverted phase-contrast microscope outfitted with a 40× objective. Clusters containing at least three cells were scored as a positive.

EphA2 [3] = experiment: EphA2 tyrosine phosphorylation in MDA-MB-231 cells (IP/Western blot); format: cell-based; details: MDA-MB-231 monolayers; single dose 5 μg/ml, 37° C.
Protocol: Monolayers of MDA-MB-231 cells were incubated in the presence of a single dose of 5 μg/ml (A, C) Eph099B-208.261 or (B, D) EA2 for the indicated time at 37° C. Cell lysates were then immunoprecipitated with an EphA2-specific antibody, resolved by SDS-PAGE and subjected to Western blot analysis with a phosphotyrosine-specific antibody (A, B). The membranes were stripped and re-probed with the EphA2-specific antibody used in the immunoprecipitation as a loading control (C, D).
as §1
EphA2 antibodies promoted tyrosine phosphorylation and degradation of EphA2 in MDA-MB-231 cells. Monolayers of cells were incubated in the presence of EphA2 agonistic antibodies or control at 37° C. […]
as §2

EphA2-Fc [4] = molecular target: T1, EphA2-Fc (human, UniProt P29317 24-537); experiment: competitive ELISA on EphA2-Fc, competitor labeled EA2
T1 construct: extracellular domain; also called fusion protein EphA2-Fc; not shown: human IgG1 constant region
T1 sequence (P29317 24-537): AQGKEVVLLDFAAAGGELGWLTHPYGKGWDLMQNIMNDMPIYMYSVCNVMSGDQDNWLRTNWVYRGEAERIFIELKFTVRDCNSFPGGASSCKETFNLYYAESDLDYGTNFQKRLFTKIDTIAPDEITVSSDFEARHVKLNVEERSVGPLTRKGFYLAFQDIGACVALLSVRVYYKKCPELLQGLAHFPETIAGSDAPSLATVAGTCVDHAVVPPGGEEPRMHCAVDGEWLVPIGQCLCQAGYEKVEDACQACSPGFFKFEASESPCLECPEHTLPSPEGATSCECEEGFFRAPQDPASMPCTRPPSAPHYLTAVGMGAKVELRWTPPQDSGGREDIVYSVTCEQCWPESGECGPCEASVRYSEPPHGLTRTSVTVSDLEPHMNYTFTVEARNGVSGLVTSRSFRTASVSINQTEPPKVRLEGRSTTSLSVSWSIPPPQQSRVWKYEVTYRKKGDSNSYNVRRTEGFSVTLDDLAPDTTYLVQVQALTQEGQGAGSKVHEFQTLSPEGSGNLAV

A549 lung cancer cells = experiment: Tumor growth, A549 cells implanted subcutaneously into athymic mice; format: in vivo; details: 6 mg/kg i.p. twice a week for 3 weeks; FIG. 7C
Protocol: Total tumor volume was determined after sacrifice.

EphA2-Fc [5] = molecular target: T2, EphA2-Fc (Homo sapiens, UniProt P29317); experiment: Competitive ELISA: inhibition of labeled EA2 binding to EphA2-Fc; details: unlabeled antibody, increasing concentrations; FIG. 1
T2 construct: consisted of the extracellular domain of human EphA2 linked to human immunoglobulin
T2 sequence (P29317 24-537 limits assumed): as the sequence (P29317 24-537) above
Protocol: The ability of labeled EA2 monoclonal antibody to bind EphA2-Fc was assayed by competitive ELISA in presence of either unlabeled monoclonal antibodies EA2 or Eph099B-208.261. Ratios of unlabeled to labeled antibody used in the assay are indicated on the x-axis.
Supernatants from bulk culture hybridomas were screened for immunoreactivity against EphA2 (Table 9, column 4) using standard molecular biological techniques (e.g., ELISA immunoassay). Supernatants were further screened for the ability to inhibit an EphA2 monoclonal antibody (EA2; ATCC deposit no. PTA-4380; see co-pending U.S. patent application Ser. No. 10/436,783, entitled “EphA2 Agonistic Monoclonal Antibodies and Methods of Use Thereof” filed May 12, 2003) from binding to EphA2. […] Additionally, many of the other antibodies could inhibit EA2 binding to EphA2 as well (Table 9, column 3).

cancer cells = experiment: Elimination of cancer cell colonies already formed in soft agar (antibody added on third day); format: cell-based; details: data not shown
Source text: Assay methods were similar to those described above except that antibodies were not added to the cancer cells until the third day of growth in soft agar.

EphA2-Fc [6] = molecular target: T2, EphA2-Fc; experiment: BIACORE surface plasmon resonance Koff measurement on immobilized EphA2-Fc; format: binding; details: FIG. 15
Source text: FIG. 15: Kinetic analysis of EphA2 monoclonal antibodies. BIACORE™ (surface plasmon resonance-based) assays were used to assay the kinetics of EphA2 monoclonal antibody binding to immobilized EphA2-Fc.
The surface plasmon resonance-based BIACORE™ assay was used to measure the Koff rates of the monoclonal antibodies of the invention. IgG present in the hybridoma supernatant was used for measurement. Antibodies with Koff rates of approximately less than 3×10^−3 s^−1 have slow Koff rates. Antibodies with Koff rates of approximately 8×10^−4 s^−1 or less have very slow Koff rates. Antibodies with Koff rates of approximately 9×10^−5 s^−1 or less have ultra slow Koff rates.
EphA2-Fc was immobilize to a surface on a CM5 sensorchip using a standard amine (70 μl of a 1:1 mix of NHS/EDC) coupling chemistry. Briefly, a 400 nM solution of EphA2-Fc in 10 mM NaOAc, pH4, was then injected over the activated surface to a density of 1000-1100 RU's. Unused reactive esters were subsequently “capped” with a 70 μl injection of 1M Et-NH2. Similarly, an activated and “capped” control surface was prepared on the same sensor chip without protein to serve as a reference surface.
A 250 μl injection of each of the EphA2 hybridoma supernatants was made over both the EphA2-Fc and control surfaces, and the binding responses were recorded. These supernatants were used undiluted. […]

binding result (EphA2-Fc [4]): binds
Koff rate compared with EA2 (EphA2-Fc [6]): slower Koff rates than EA2
B1: Eph099B-208.261 (antibody, V domains shown)
VH: QVQLQQPGAELVKPGASVKLSCKASGYTFTSYWMHWVKQRPGQGLEWIGMIHPNSGSTNYNEKFKSKATLTVDKSSSTAYMRLSSLTSEDSAVYYCARGGNMVGGGYWGQGTTLTVSS
VL: QIVLTQSPALMSASPGEKVTMTCSASSSVSYMYWYQQKPRSSPKPWIYLTTNLASGVPARFSGSGSGTSYSLTISSMEAEDAATYYCQQWSSNPFTFGSGTKLEIR
notes: Mouse (SJL) hybridoma monoclonal antibody, ATCC PTA-4573
Tumor growth, MDA-MB-231 implanted subcutaneously [1]: inhibited; also recorded: inhibit tumor cell growth in vivo
EphA2 protein level (degradation) (EphA2 [2]): decreased EphA2 protein level; also recorded: promote EphA2 degradation in MDA-MB-231 cells
Colony growth / formation in soft agar (MDA-MB-231 tumor cells): inhibited colony growth in soft agar; also recorded: inhibit malignant tumor cell growth in soft agar
EphA2 tyrosine phosphorylation (EphA2 [3]): increased EphA2 phosphorylation; also recorded: promote EphA2 tyrosine phosphorylation in MDA-MB-231 cells
Tumor growth, A549 implanted subcutaneously (A549 lung cancer cells): inhibited
Competition with labeled EA2 for binding to EphA2-Fc (EphA2-Fc [5]): could decrease the amount of labeled EA2 binding to EphA2-Fc; also recorded: can compete with EA2 for binding to EphA2
Effect on cancer cell colonies already formed in soft agar (cancer cells): can kill cancer cells already growing in colonies in soft agar while other antibodies can slow or reduce cancer cell colony growth in soft agar
